In this test the target is T1, N1-525 with an Histidine tag (full length measles virus nucleoprotein, Edmonston strain) (measles virus (Edmonston strain), UniProt P0DXN6 1-525).
T1 construct: also called full length N
T1 sequence: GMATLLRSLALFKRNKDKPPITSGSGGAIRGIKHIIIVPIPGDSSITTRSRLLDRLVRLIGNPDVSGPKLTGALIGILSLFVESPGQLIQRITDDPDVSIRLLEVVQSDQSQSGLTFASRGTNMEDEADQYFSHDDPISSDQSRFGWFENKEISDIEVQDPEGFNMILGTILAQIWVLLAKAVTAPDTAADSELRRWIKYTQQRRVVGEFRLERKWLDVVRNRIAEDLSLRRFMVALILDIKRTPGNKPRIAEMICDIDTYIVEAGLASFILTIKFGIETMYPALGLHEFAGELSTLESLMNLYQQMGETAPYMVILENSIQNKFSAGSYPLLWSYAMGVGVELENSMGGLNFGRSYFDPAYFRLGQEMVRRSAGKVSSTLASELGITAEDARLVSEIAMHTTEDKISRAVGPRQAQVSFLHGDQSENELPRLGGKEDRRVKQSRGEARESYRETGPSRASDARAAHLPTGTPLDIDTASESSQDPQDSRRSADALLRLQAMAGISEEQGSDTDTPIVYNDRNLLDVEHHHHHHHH
As to the kind of experiment: co-expression, TEV cleavage, SAXS and SEC-MALLS.

B1: P1-50 with a TEV peptide amino acid sequence (first 50 amino acids of measles virus phosphoprotein, Edmonston strain, after TEV cleavage) (peptide)
peptide: MAEEQARHVKNGLECIRALKAEPIGSLAIEEAMAAWSEISDNPGQERATCENLYFQN
notes: Produced as a P1-50-TEV site-N fusion in E. coli and cleaved with TEV; also called P1-50 peptide; minimal P peptide
Turning to B1, the binding result is “binds”.

The values are drawn from patent US20190292229A1 (COMMISSARIAT A L ENERGIE ATOMIQUE ET AUX ENERGIES …, published 2019).
